Experimental data from patent publication US20230002480A1.

What was measured:
Test in all cases: cell-based or functional assay
[1] = molecular target: HIV-1 Env of pseudovirus 0815.v3.c3 (HIV-1)
[2] = molecular target: HIV-1 Env of pseudovirus 1054_07_TC4_1499 (HIV-1)
[3] = molecular target: HIV-1 Env of pseudovirus 1056_10_TA11_1826 (HIV-1)
[4] = molecular target: HIV-1 Env of pseudovirus 235-47 (HIV-1)
[5] = molecular target: HIV-1 Env of pseudovirus 246F C1G (HIV-1)
[6] = molecular target: HIV-1 Env of pseudovirus 249M B10 (HIV-1)
[7] = molecular target: HIV-1 Env of pseudovirus 3103.v3.c10 (HIV-1)
[8] = molecular target: HIV-1 Env of pseudovirus 3301.v1.c24 (HIV-1)
[9] = molecular target: HIV-1 Env of pseudovirus 3817.v2.c59 (HIV-1)
[10] = molecular target: HIV-1 Env of pseudovirus 620345.c01 (HIV-1)
[11] = molecular target: HIV-1 Env of pseudovirus 62357_14_D3_4589 (HIV-1)
[12] = molecular target: HIV-1 Env of pseudovirus 6535.3 (HIV-1)
[13] = molecular target: HIV-1 Env of pseudovirus 7030102001E5(Rev-) (HIV-1)
[14] = molecular target: HIV-1 Env of pseudovirus BJOX009000.02.4 (HIV-1)
[15] = molecular target: HIV-1 Env of pseudovirus C1080.c03 (HIV-1)
[16] = molecular target: HIV-1 Env of pseudovirus C3347.c11 (HIV-1)
[17] = molecular target: HIV-1 Env of pseudovirus CAAN5342.A2 (HIV-1)
[18] = molecular target: HIV-1 Env of pseudovirus CAP210.2.00.E8 (HIV-1)
[19] = molecular target: HIV-1 Env of pseudovirus CNE58 (HIV-1)
[20] = molecular target: HIV-1 Env of pseudovirus CNE8 (HIV-1)
[21] = molecular target: HIV-1 Env of pseudovirus Ce0393_C3 (HIV-1)
[22] = molecular target: HIV-1 Env of pseudovirus Ce0682_E4 (HIV-1)
[23] = molecular target: HIV-1 Env of pseudovirus Ce703010054_2A2 (HIV-1)
[24] = molecular target: HIV-1 Env of pseudovirus Ce704809221_1B3 (HIV-1)
[25] = molecular target: HIV-1 Env of pseudovirus Du172.17 (HIV-1)
[26] = molecular target: HIV-1 Env of pseudovirus HIV-001428-2.42 (HIV-1)
[27] = molecular target: HIV-1 Env of pseudovirus HIV-16055-2.3 (HIV-1)
[28] = molecular target: HIV-1 Env of pseudovirus Q259.d2.17 (HIV-1)
[29] = molecular target: HIV-1 Env of pseudovirus Q842.d12 (HIV-1)
[30] = molecular target: HIV-1 Env of pseudovirus R2184.c04 (HIV-1)
[31] = molecular target: HIV-1 Env of pseudovirus R3265.c06 (HIV-1)
[32] = molecular target: HIV-1 Env of pseudovirus REJO4541.67 (HIV-1)
[33] = molecular target: HIV-1 Env of pseudovirus T251-18 (HIV-1)
[34] = molecular target: HIV-1 Env of pseudovirus X1193_c1 (HIV-1)
[35] = molecular target: HIV-1 Env of pseudovirus X1254_c3 (HIV-1)
[36] = molecular target: HIV-1 Env of pseudovirus ZM233M.PB6 (HIV-1)
[37] = molecular target: HIV-1 Env of pseudovirus 191084 B7-19 (HIV-1)

PGT121 (antibody)
IC50 [1]: 0.025 µg/mL | IC80 [1]: 0.111 µg/mL | IC50 [2]: 0.064 µg/mL | IC80 [2]: 0.304 µg/mL | IC50 [3]: 0.004 µg/mL | IC80 [3]: 0.081 µg/mL | IC50 [4]: 0.137 µg/mL | IC80 [4]: 0.727 µg/mL | IC50 [5]: 0.041 µg/mL | IC80 [5]: 0.14 µg/mL | IC50 [6]: > 50 µg/mL | IC80 [6]: > 50 µg/mL | IC50 [7]: 0.009 µg/mL | IC80 [7]: 0.028 µg/mL | IC50 [8]: 0.008 µg/mL | IC80 [8]: 0.019 µg/mL | IC50 [9]: 18.9 µg/mL | IC80 [9]: > 50 µg/mL | IC50 [10]: > 50 µg/mL | IC80 [10]: > 50 µg/mL | IC50 [11]: 2.6 µg/mL | IC80 [11]: > 50 µg/mL | IC50 [12]: 0.002 µg/mL | IC80 [12]: 0.008 µg/mL | IC50 [13]: 0.009 µg/mL | IC80 [13]: 0.027 µg/mL | IC50 [14]: 2.86 µg/mL | IC80 [14]: 31.7 µg/mL | IC50 [15]: > 50 µg/mL | IC80 [15]: > 50 µg/mL | IC50 [16]: > 50 µg/mL | IC80 [16]: > 50 µg/mL | IC50 [17]: 0.007 µg/mL | IC80 [17]: 0.023 µg/mL | IC50 [18]: 26.3 µg/mL | IC80 [18]: > 50 µg/mL | IC50 [19]: > 50 µg/mL | IC80 [19]: > 50 µg/mL | IC50 [20]: > 50 µg/mL | IC80 [20]: > 50 µg/mL | IC50 [21]: > 50 µg/mL | IC80 [21]: > 50 µg/mL | IC50 [22]: > 50 µg/mL | IC80 [22]: > 50 µg/mL | IC50 [23]: > 50 µg/mL | IC80 [23]: > 50 µg/mL | IC50 [24]: 0.025 µg/mL | IC80 [24]: 0.126 µg/mL | IC50 [25]: 0.033 µg/mL | IC80 [25]: 0.257 µg/mL | IC50 [26]: 0.014 µg/mL | IC80 [26]: 0.051 µg/mL | IC50 [27]: 0.153 µg/mL | IC80 [27]: 4.8 µg/mL | IC50 [28]: 15.4 µg/mL | IC80 [28]: > 50 µg/mL | IC50 [29]: 0.005 µg/mL | IC50 [30]: > 50 µg/mL | IC80 [30]: > 50 µg/mL | IC50 [31]: > 50 µg/mL | IC80 [31]: > 50 µg/mL | IC50 [32]: 4.77 µg/mL | IC80 [32]: > 50 µg/mL | IC50 [33]: 29 µg/mL | IC80 [33]: > 50 µg/mL | IC80 [34]: 0.086 µg/mL | IC50 [35]: 0.014 µg/mL | IC80 [35]: 0.08 µg/mL | IC50 [36]: 3.69 µg/mL

N49P7.2 (antibody)
IC50 [1]: 0.023 µg/mL | IC80 [1]: 0.103 µg/mL | MPI [1]: 100 | IC50 [37]: 0.102 µg/mL | IC80 [37]: 0.29 µg/mL | MPI [37]: 100 | IC50 [4]: 0.127 µg/mL | IC80 [4]: 1.03 µg/mL | MPI [4]: 90 | IC50 [7]: 0.222 µg/mL | IC80 [7]: 0.57 µg/mL | MPI [7]: 100 | IC50 [8]: 0.05 µg/mL | IC80 [8]: 0.137 µg/mL | MPI [8]: 100 | IC50 [9]: 9.83 µg/mL | IC80 [9]: > 50 µg/mL | MPI [9]: 68 | IC50 [10]: > 50 µg/mL | IC80 [10]: > 50 µg/mL | MPI [10]: 0 | IC50 [14]: > 50 µg/mL | IC80 [14]: > 50 µg/mL | MPI [14]: 43 | IC50 [15]: 0.279 µg/mL | IC80 [15]: 1.76 µg/mL | MPI [15]: 100 | IC50 [16]: 0.047 µg/mL | IC80 [16]: 0.154 µg/mL | MPI [16]: 100 | IC50 [20]: 0.073 µg/mL | IC80 [20]: 0.24 µg/mL | MPI [20]: 100 | IC50 [30]: 0.02 µg/mL | IC80 [30]: 0.047 µg/mL | MPI [30]: 100 | IC50 [31]: 0.153 µg/mL | IC80 [31]: 0.985 µg/mL | MPI [31]: 100 | IC50 [33]: 0.222 µg/mL | IC80 [33]: 0.741 µg/mL | MPI [33]: 100 | IC50 [34]: 0.014 µg/mL | IC80 [34]: 0.101 µg/mL | MPI [34]: 100 | IC50 [35]: 27.5 µg/mL | IC80 [35]: > 50 µg/mL | MPI [35]: 53
